Target: T1, KcsA (S. lividans), P0A334
T1 chain: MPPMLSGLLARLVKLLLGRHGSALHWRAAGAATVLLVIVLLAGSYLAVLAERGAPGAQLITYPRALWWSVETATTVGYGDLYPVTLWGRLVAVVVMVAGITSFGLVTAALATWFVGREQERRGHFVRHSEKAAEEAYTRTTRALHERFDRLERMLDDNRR
Assay: SDS-PAGE
Conditions: remark: other sources report otherwise

- stoichiometry N: 4
B1: KcsA, P0A334 1-160 (natural protein)
chain: T1 chain

Source: PMC2937177
